Reference: US20250276092A1 (Regeneron, published 2025)

Columns and labels:
[1] = target: T1, human CD40 expressed on cells (human, UniProt P25942 21-277); assay: cell-based or functional assay
[2] = target: T1, human CD40 expressed on cells; assay: cell-based or functional assay; remark: listed apart in the source
[3] = target: T1, human CD40 expressed on cells; assay: cell-based or functional assay; remark: listed apart in the source
[4] = target: T2, human CD40 extracellular domain expressed with a C-terminal myc-myc-hexahistidine tag (human); assay: ELISA, blocks 40 nM hCD40-mmH binding to coated 9His-hCD40L
T2 construct: also called hCD40-MMH; hCD40-mmH
Description: In the blocking assay, 9His-hCD40L was passively absorbed at a concentration of 5 μg/mL in PBS on a 96-well microtiter plate overnight at 4° C. […] In a separate 96-well microtiter plate, a fixed amount of 40 nM hCD40-mmH was pre-mixed with one of the following antibodies, at concentrations ranging from 977 pM to 1 μM in PBS+0.5% BSA: (1) anti-CD40×CD40 bispecific antibodies (REGN16431, REGN16432, REGN16634, and REGN16335); (2) parental anti-CD40 mAbs (bivalent antibodies comprising 2 fragment antigen-binding [Fab] arms identical to one of anti-CD40 Fab of anti-CD40×CD40 antibodies); (3) anti-CD40×Irrelevant antibodies (bivalent antibodies that incorporate one Fab arm identical to one of anti-CD40 Fab of anti-CD40×CD40 antibodies and another Fab arm specific to an irrelevant antigen); and (4) human IgG4 with Fc mutation isotype control antibodies (REGN7540 and REGN4513). The fixed concentration of hCD40-mmH was selected to be near the concentration (EC₅₀ value) that generated 50% of the maximal binding to the plate-adhered 9His-hCD40L. After one-hour incubation, the antibody-antigen complexes were transferred to the microtiter plate coated with 9His-hCD40L. After one hour incubation at room temperature, the plates were washed, and plate-bound hCD40-mmH protein was detected with horseradish peroxidase (HRP) conjugated goat anti-c-Myc antibody. The plates were then developed using TMB substrate solution (BD Biosciences) according to the manufacturer's recommended procedure and the absorbance at 450 nm (OD₄₅₀) was measured on a SpectraMax i3× plate reader.
Binding data were analyzed using a sigmoidal (four-parameter logistic) dose-response model with GraphPad Prism™ software. […] The percent blocking of tested antibodies at the highest tested concentration ([…]) was calculated based on the formula shown below: […]

[5] = target: T1, human CD40 expressed on cells; assay: cell-based or functional assay; remark: listed apart in the source
[6] = target: T1, human CD40 expressed on cells; assay: cell-based or functional assay; remark: listed apart in the source
[7] = target: T1, human CD40 expressed on cells; assay: cell-based or functional assay; remark: listed apart in the source
[8] = target: T1, human CD40 expressed on cells; assay: cell-based or functional assay; remark: listed apart in the source
[9] = target: T1, human CD40 expressed on cells; assay: cell-based or functional assay; remark: listed apart in the source
[10] = target: T1, human CD40 expressed on cells; assay: cell-based or functional assay; remark: listed apart in the source

T1 sequence (P25942 21-277): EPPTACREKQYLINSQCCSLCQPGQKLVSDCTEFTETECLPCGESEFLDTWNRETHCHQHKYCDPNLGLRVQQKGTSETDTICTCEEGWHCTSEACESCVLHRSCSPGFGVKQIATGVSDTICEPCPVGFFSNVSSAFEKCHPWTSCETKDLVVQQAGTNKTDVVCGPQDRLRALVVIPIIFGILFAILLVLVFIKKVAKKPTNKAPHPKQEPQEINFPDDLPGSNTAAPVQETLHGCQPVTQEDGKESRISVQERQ
T2 sequence (chain, as listed by the source limits assumed): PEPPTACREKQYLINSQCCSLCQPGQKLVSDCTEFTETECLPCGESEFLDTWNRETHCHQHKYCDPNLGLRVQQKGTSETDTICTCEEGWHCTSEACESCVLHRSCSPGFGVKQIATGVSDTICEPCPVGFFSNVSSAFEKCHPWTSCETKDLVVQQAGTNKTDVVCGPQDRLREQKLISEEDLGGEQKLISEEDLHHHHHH

B1: REGN17544 (antibody, V domains shown)
VH: EVQLVESGGGLVQPGGSLRLSCAASGFTFGSYGMAWVRQAPGKGLEWVSAISGSGDYTNYADSVKRRFTISRDNSKNTLYLQMSSLRAEDTAVYYCAKEKTGTTGYLYSGMDVWGQGTTVTVSS
VL: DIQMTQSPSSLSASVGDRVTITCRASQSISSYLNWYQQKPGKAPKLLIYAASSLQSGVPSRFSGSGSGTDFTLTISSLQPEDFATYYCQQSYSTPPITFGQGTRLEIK
IC50, NFkB-luc Ramos, 500 pM hCD40L [1]: 1.89e-10 M | Max % activation, NFkB-luc Ramos, no ligand [1]: 10% | Max % inhibition, NFkB-luc Ramos, 500 pM hCD40L [1]: 77% | IC50, NFkB-luc Raji, 900 pM hCD40L [2]: 1.35e-10 M | Max % activation, NFkB-luc Raji, no ligand [2]: 11% | Max % inhibition, NFkB-luc Raji, 900 pM hCD40L [2]: 81% | IC50, NFkB-luc THP-1, 10 nM hCD40L [3]: 1.13 nM | Max % activation, NFkB-luc THP-1, no ligand [3]: 4% | Max % inhibition, NFkB-luc THP-1, 10 nM hCD40L [3]: 96% | % Blocking at highest mAb concentration [4]: 91%

B2: REGN17288 (antibody, V domains shown)
VH: QLQLQESGPGLVRPSETLSLTCSVSGASMNTNNYYWGWIRQPPGKGLEWIGSGYYNGNTYYNPSLKSRVTISVDTSKNQFSLKLNSVTAADTAVYYCARQTPPRIIGSPNIWGQGTMVTVSS
VL: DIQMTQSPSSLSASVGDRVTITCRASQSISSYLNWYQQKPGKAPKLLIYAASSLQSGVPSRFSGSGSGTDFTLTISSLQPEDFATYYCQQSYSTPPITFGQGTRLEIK
IC50, NFkB-luc Ramos, 500 pM hCD40L [1]: 4.07e-11 M | Max % activation, NFkB-luc Ramos, no ligand [1]: 6% | Max % inhibition, NFkB-luc Ramos, 500 pM hCD40L [1]: 88% | IC50, NFkB-luc Raji, 900 pM hCD40L [2]: 4.28e-11 M | Max % activation, NFkB-luc Raji, no ligand [2]: 14% | Max % inhibition, NFkB-luc Raji, 900 pM hCD40L [2]: 90% | IC50, NFkB-luc THP-1, 10 nM hCD40L [3]: 0.334 nM | Max % activation, NFkB-luc THP-1, no ligand [3]: 0% | Max % inhibition, NFkB-luc THP-1, 10 nM hCD40L [3]: 98% | % Blocking at highest mAb concentration [4]: 94%

B3: REGN16334 (bispecific antibody, human IgG4 S228P, kappa)
heavy 1: QLQLQESGPGLVRPSETLSLTCSVSGASMNTNNYYWGWIRQPPGKGLEWIGSGYYNGNTYYNPSLKSRVTISVDTSKNQFSLKLNSVTAADTAVYYCARQTPPRIIGSPNIWGQGTMVTVSSASTKGPSVFPLAPCSRSTSESTAALGCLVKDYFPEPVTVSWNSGALTSGVHTFPAVLQSSGLYSLSSVVTVPSSSLGTKTYTCNVDHKPSNTKVDKRVESKYGPPCPPCPAPGGGGPSVFLFPPKPKDTLMISRTPEVTCVVVDVSQEDPEVQFNWYVDGVEVHNAKTKPREEQFNSTYRVVSVLTVLHQDWLNGKEYKCKVSNKGLPSSIEKTISKAKGQPREPQVYTLPPSQEEMTKNQVSLTCLVKGFYPSDIAVEWESNGQPENNYKTTPPVLDSDGSFFLYSRLTVDKSRWQEGNVFSCSVMHEALHNHYTQKSLSLSLGK
heavy 2: EVQLVESGGGLVQPGGSLRLSCAASGFTFGSYGMAWVRQAPGKGLEWVSAISGSGDYTNYADSVKRRFTISRDNSKNTLYLQMSSLRAEDTAVYYCAKEKTGTTGYLYSGMDVWGQGTTVTVSSASTKGPSVFPLAPCSRSTSESTAALGCLVKDYFPEPVTVSWNSGALTSGVHTFPAVLQSSGLYSLSSVVTVPSSSLGTKTYTCNVDHKPSNTKVDKRVESKYGPPCPPCPAPGGGGPSVFLFPPKPKDTLMISRTPEVTCVVVDVSQEDPEVQFNWYVDGVEVHNAKTKPREEQFNSTYRVVSVLTVLHQDWLNGKEYKCKVSNKGLPSSIEKTISKAKGQPREPQVYTLPPSQEEMTKNQVSLTCLVKGFYPSDIAVEWESNGQPENNYKTTPPVLDSDGSFFLYSRLTVDKSRWQEGNVFSCSVMHEALHNRFTQKSLSLSPGK
light: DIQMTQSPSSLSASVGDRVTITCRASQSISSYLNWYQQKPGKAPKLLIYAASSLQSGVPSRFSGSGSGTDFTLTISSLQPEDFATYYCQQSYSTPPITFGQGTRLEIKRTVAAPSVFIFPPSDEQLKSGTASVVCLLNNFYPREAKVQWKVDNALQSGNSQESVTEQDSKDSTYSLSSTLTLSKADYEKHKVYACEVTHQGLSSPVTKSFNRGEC
notes: also called REGN16634 [sic]
IC50, NFkB-luc Ramos, 500 pM hCD40L [1]: 6.93e-11 M | Max % activation, NFkB-luc Ramos, no ligand [1]: 6% | Max % inhibition, NFkB-luc Ramos, 500 pM hCD40L [1]: 91% | IC50, NFkB-luc Raji, 900 pM hCD40L [2]: 5.76e-11 M | Max % activation, NFkB-luc Raji, no ligand [2]: 13% | Max % inhibition, NFkB-luc Raji, 900 pM hCD40L [2]: 113% | IC50, NFkB-luc THP-1, 10 nM hCD40L [3]: 0.553 nM | Max % activation, NFkB-luc THP-1, no ligand [3]: 1% | Max % inhibition, NFkB-luc THP-1, 10 nM hCD40L [3]: 98% | % max blockade relative to no mAb, IL-6, B cells, donor 1 [5]: 84.5% | % max blockade relative to no mAb, IL-6, B cells, donor 2 [5]: 92% | % max blockade relative to no mAb, IL-6, B cells, donor 3 [5]: 92% | % max blockade relative to no mAb, IL-10, B cells, donor 1 [6]: 74.2% | % max blockade relative to no mAb, IL-10, B cells, donor 2 [6]: 91.4% | % max blockade relative to no mAb, IL-10, B cells, donor 3 [6]: 92.4% | % max blockade relative to no mAb, TNFa, B cells, donor 1 [7]: 44% | % max blockade relative to no mAb, TNFa, B cells, donor 2 [7]: 63.5% | % max blockade relative to no mAb, TNFa, B cells, donor 3 [7]: 68.5% | % max blockade relative to no mAb, IL-6, assay #2, donor 1 [8]: 88.9% | % max blockade relative to no mAb, IL-6, assay #2, donor 2 [8]: 89.2% | % max blockade relative to no mAb, IL-10, assay #2, donor 1 [9]: 87.7% | % max blockade relative to no mAb, IL-10, assay #2, donor 2 [9]: 89.9% | % max blockade relative to no mAb, TNFa, assay #2, donor 1 [10]: 62.8% | % max blockade relative to no mAb, TNFa, assay #2, donor 2 [10]: 51.1% | % Blocking at highest mAb concentration [4]: 98%

B4: REGN20484 (bispecific antibody, human IgG4 S228P, kappa)
heavy 1: EVQLVESGGGLVQPGGSLRLSCAASGFTFGSYGMAWVRQAPGKGLEWVSAISGSGDYTNYADSVKRRFTISRDNSKNTLYLQMSSLRAEDTAVYYCAKEKTGTTGYLYSGMDVWGQGTTVTVSSASTKGPSVFPLAPCSRSTSESTAALGCLVKDYFPEPVTVSWNSGALTSGVHTFPAVLQSSGLYSLSSVVTVPSSSLGTKTYTCNVDHKPSNTKVDKRVESKYGPPCPPCPAPGGGGPSVFLFPPKPKDTLMISRTPEVTCVVVDVSQEDPEVQFNWYVDGVEVHNAKTKPREEQFNSTYRVVSVLTVLHQDWLNGKEYKCKVSNKGLPSSIEKTISKAKGQPREPQVYTLPPSQEEMTKNQVSLTCLVKGFYPSDIAVEWESNGQPENNYKTTPPVLDSDGSFFLYSRLTVDKSRWQEGNVFSCSVMHEALHNHYTQKSLSLSLGK
heavy 2: EVQLVESGGGLVQPGGSLRLSCAASGFTFSSYAMNWVRQAPGKGLEWVSIISGTIGKTYYADSVKGRFTISRDNSKNTLYLQMNSLRGEDTAVYYCAKDTERDITGSPFDYWGQGTLVTVSSASTKGPSVFPLAPCSRSTSESTAALGCLVKDYFPEPVTVSWNSGALTSGVHTFPAVLQSSGLYSLSSVVTVPSSSLGTKTYTCNVDHKPSNTKVDKRVESKYGPPCPPCPAPGGGGPSVFLFPPKPKDTLMISRTPEVTCVVVDVSQEDPEVQFNWYVDGVEVHNAKTKPREEQFNSTYRVVSVLTVLHQDWLNGKEYKCKVSNKGLPSSIEKTISKAKGQPREPQVYTLPPSQEEMTKNQVSLTCLVKGFYPSDIAVEWESNGQPENNYKTTPPVLDSDGSFFLYSRLTVDKSRWQEGNVFSCSVMHEALHNRFTQKSLSLSPGK
light: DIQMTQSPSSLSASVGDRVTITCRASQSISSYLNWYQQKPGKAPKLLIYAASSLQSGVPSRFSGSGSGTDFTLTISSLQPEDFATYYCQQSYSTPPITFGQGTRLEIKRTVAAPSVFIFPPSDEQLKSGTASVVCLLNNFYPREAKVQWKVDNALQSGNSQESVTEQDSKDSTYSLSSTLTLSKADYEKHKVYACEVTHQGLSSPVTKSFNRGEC
% max blockade relative to no mAb, IL-6, assay #2, donor 1 [8]: 89% | % max blockade relative to no mAb, IL-6, assay #2, donor 2 [8]: 88.1% | % max blockade relative to no mAb, IL-10, assay #2, donor 1 [9]: 87.1% | % max blockade relative to no mAb, IL-10, assay #2, donor 2 [9]: 90.9% | % max blockade relative to no mAb, TNFa, assay #2, donor 1 [10]: 61.9% | % max blockade relative to no mAb, TNFa, assay #2, donor 2 [10]: 52.3%

B5: REGN17289 (antibody, V domains shown)
VH: EVQLVESGGGLVQPGGSLRLSCAASGFTFSSYAMNWVRQAPGKGLEWVSIISGTIGKTYYADSVKGRFTISRDNSKNTLYLQMNSLRGEDTAVYYCAKDTERDITGSPFDYWGQGTLVTVSS
VL: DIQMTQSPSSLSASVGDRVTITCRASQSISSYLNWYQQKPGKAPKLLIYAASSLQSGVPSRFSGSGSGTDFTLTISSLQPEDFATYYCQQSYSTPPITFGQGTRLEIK
EC50 in the presence of CD40L (potentiation), NFkB-luc Ramos, 500 pM hCD40L [1]: 7.51e-12 M | Max % activation, NFkB-luc Ramos, no ligand [1]: 4% | Max % inhibition, NFkB-luc Ramos, 500 pM hCD40L [1]: -133% | IC50, NFkB-luc Raji, 900 pM hCD40L [2]: 2.72e-11 M | Max % activation, NFkB-luc Raji, no ligand [2]: 10% | Max % inhibition, NFkB-luc Raji, 900 pM hCD40L [2]: 55% | EC50 in the presence of CD40L (potentiation), NFkB-luc THP-1, 10 nM hCD40L [3]: 0.016 nM | Max % activation, NFkB-luc THP-1, no ligand [3]: 1% | Max % inhibition, NFkB-luc THP-1, 10 nM hCD40L [3]: -92%
